The results in this text go back to US20180057604A1 (Genentech, published 2018).

For test [1], the target named is T1, human BACE1 ECD.
T1 construct: analyte of the Octet assay (200 nM) and enzyme of the first short substrate assay; also called human BACE1 extracellular domain
Nature of the test: Octet, pH 5.0. For orientation: BLI is a label-free optical method that tracks binding on a fibre tip over time.

Test [2] addresses T2, murine BACE1 ECD.
T2 construct: analyte of the Octet assay (200 nM) and enzyme of the first short substrate assay
Nature of the test: Octet, pH 5.0.

Test [3] concerns the target T1, human BACE1 ECD. Nature of the test: Octet, pH 7.5.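 Note: antibodies captured on anti-human capture biosensor tips, dissociation followed in PBS with BSA buffer, kinetics fitted with a one-to-one binding model.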
Test [4] deals with T2, murine BACE1 ECD. Put plainly: Octet, pH 7.5.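 Note: antibodies captured on anti-human capture biosensor tips, dissociation followed in PBS with BSA buffer, kinetics fitted with a one-to-one binding model.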
Test [5] concerns the target T3, human BACE1 (R&D Systems) (human, UniProt P56817).
T3 construct: recombinant, commercial (R&D Systems)
Nature of the test: SPR (Biacore). (In general: Surface plasmon resonance follows binding to a sensor surface in real time, without labels.)

Test [6] has as its target T1, human BACE1 ECD. Nature of the test: cell-based or functional assay.
Test [7] deals with T2, murine BACE1 ECD. Put plainly: cell-based or functional assay.
Test [8] concerns the target BACE1 (HTRF long substrate and FRET short substrate assays of Example 9D). Put plainly: cell-based or functional assay.
Test [9] has as its target BACE1 in primary mouse cortical neurons (mouse, UniProt P56818 46-501). Put plainly: cell-based or functional assay.
Test [10] has as its target T1, human BACE1 ECD. Nature of the test: Octet, pH 5.0, second run.
Test [11] concerns the target T2, murine BACE1 ECD. Put plainly: Octet, pH 5.0, second run.
In test [12] the target is T1, human BACE1 ECD. Nature of the test: Octet, pH 7.5, second run.
In test [13] the target is T2, murine BACE1 ECD. Nature of the test: Octet, pH 7.5, second run.
The target in test [14] is T3, human BACE1 (R&D Systems). Put plainly: SPR (Biacore), second run.
For test [15], the target named is T4, human TfR extracellular domain with N-terminal His tag (human, UniProt P02786 89-760).
T4 construct: Biotinylated in some assays; also called huTfR; HuTfR
Nature of the test: ELISA. (In general: In an ELISA, binding on a coated surface is turned into a signal by an enzyme label.)

Test [16] concerns the target T5, human TfR, full length, on cells (human, UniProt P02786 1-760).
T5 construct: also called human TfR transiently expressed in 293 cells; TfR on HEL cells
Nature of the test: FACS, 293 cells, 1 uM holo-Tf.

Test [17] addresses T4, human TfR extracellular domain with …. Nature of the test: SPR, Fab.
Test [18] addresses T6, cyno TfR extracellular domain (analogous construct to human TfR ecd) (cynomolgus monkey, UniProt Q5RDH6 87-760 (Pongo abelii entry)).
T6 construct: also called cynoTfR ecd
T6 chain: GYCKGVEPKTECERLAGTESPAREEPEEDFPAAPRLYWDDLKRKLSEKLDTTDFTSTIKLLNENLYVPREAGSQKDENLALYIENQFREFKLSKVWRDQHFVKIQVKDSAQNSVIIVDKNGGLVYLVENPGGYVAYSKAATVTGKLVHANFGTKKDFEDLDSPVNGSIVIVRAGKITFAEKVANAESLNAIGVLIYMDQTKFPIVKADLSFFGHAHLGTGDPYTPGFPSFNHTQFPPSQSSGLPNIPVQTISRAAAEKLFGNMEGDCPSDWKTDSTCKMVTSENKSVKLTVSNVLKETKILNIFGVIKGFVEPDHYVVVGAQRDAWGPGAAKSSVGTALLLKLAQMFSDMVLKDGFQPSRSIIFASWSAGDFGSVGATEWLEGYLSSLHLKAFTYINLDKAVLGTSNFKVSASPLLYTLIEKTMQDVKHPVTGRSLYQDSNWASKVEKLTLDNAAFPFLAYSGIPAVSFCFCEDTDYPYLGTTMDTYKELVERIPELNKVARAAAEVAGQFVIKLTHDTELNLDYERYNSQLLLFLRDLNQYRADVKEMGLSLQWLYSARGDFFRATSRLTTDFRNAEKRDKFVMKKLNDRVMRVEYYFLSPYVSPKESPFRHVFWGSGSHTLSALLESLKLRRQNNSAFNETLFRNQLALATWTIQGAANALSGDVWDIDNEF
Nature of the test: SPR, Fab.

The target in test [19] is T6, cyno TfR extracellular domain …. Put plainly: SPR, KD on cyno TfR over KD on human TfR.
Test [20] has as its target T4, human TfR extracellular domain with …. Put plainly: SPR, TfR captured by anti-His, Fab injected.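 Note: single cycle kinetics with a Fab dilution series, fitted by a one-to-one Langmuir model or a steady state model, KD taken as koff over kon.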
Test [21] concerns the target T6, cyno TfR extracellular domain …. Nature of the test: SPR, TfR captured by anti-His, Fab injected.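 Note: single cycle kinetics with a Fab dilution series, fitted by a one-to-one Langmuir model or a steady state model, KD taken as koff over kon.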
Test [22] addresses T4, human TfR extracellular domain with …. Nature of the test: SPR, IgG.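 Note: His-tagged TfR captured via immobilized anti-His antibody on a CM5 chip, antibody injected in 3-fold dilution series by single cycle kinetics, 1:1 Langmuir or steady-state fit.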
Test [23] has as its target T6, cyno TfR extracellular domain …. Put plainly: SPR, IgG.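 Note: His-tagged TfR captured via immobilized anti-His antibody on a CM5 chip, antibody injected in 3-fold dilution series by single cycle kinetics, 1:1 Langmuir or steady-state fit.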
The target in test [24] is T4, human TfR extracellular domain with …. Nature of the test: ELISA, IgG.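 Note: ELISA of IgG-containing supernatants tested in 1:5 serial dilutions for 1 h, bound antibody read out with HRP anti-kappa antibody and TMB substrate.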
Test [25] addresses T6, cyno TfR extracellular domain …. Put plainly: ELISA, IgG.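 Note: ELISA of IgG-containing supernatants tested in 1:5 serial dilutions for 1 h, bound antibody read out with HRP anti-kappa antibody and TMB substrate.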
In test [26] the target is T4, human TfR extracellular domain with …. Put plainly: SPR SCK 1:1 fit, IgG.
The target of test [27] is T6, cyno TfR extracellular domain …. Nature of the test: SPR SCK 1:1 fit, IgG.
Test [28] addresses T4, human TfR extracellular domain with …. Put plainly: ELISA, immobilized huTfR, with and without 6.3 uM holo-Tf.
The target is the same in test [29]. Put plainly: SPR steady state, IgG.
Test [30] deals with T6, cyno TfR extracellular domain …. Nature of the test: SPR steady state, IgG.

Positions count from the first letter of the chain named. Names and notes keep the numbering of the source.

T1 sequence (single chain, as listed by the source limits assumed): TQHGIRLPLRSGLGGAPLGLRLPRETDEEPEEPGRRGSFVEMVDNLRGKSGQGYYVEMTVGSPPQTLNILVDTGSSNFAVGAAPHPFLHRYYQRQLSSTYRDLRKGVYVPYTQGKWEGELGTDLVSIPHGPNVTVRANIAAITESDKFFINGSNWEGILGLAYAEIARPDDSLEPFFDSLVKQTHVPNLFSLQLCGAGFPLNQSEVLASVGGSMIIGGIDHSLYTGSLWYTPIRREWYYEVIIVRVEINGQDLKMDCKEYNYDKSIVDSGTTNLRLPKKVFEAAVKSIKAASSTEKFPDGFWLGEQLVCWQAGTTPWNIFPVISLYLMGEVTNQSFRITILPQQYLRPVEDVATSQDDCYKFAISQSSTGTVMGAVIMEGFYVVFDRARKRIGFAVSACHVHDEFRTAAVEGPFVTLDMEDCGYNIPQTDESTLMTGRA
T2 sequence (single chain, as listed by the source limits assumed): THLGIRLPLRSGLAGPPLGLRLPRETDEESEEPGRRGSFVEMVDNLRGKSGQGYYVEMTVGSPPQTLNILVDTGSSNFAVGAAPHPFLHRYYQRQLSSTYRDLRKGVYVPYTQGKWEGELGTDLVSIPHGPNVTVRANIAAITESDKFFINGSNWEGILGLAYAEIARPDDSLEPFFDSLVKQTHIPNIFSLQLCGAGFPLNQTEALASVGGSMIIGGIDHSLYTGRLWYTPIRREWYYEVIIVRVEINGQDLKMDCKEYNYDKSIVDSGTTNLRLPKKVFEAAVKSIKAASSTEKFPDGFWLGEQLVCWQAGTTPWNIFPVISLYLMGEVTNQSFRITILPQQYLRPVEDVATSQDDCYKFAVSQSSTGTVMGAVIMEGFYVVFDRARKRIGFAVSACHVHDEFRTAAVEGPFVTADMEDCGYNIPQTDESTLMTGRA
Sequence of BACE1 in primary mouse cortical neurons (P56818 46-501): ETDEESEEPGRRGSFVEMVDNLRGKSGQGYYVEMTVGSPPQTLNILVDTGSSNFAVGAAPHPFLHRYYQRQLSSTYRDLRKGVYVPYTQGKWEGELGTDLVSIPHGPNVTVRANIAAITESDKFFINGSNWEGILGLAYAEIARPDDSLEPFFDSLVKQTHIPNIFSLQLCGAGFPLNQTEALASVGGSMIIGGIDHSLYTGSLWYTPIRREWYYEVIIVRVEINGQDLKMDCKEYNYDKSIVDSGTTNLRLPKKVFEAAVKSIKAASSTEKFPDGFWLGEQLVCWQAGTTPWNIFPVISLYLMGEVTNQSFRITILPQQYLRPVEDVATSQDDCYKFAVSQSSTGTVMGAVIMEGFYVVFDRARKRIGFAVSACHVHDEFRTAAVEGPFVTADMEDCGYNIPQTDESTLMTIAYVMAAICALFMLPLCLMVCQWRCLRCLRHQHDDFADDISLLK
T3 sequence (P56817 22-457 limits assumed): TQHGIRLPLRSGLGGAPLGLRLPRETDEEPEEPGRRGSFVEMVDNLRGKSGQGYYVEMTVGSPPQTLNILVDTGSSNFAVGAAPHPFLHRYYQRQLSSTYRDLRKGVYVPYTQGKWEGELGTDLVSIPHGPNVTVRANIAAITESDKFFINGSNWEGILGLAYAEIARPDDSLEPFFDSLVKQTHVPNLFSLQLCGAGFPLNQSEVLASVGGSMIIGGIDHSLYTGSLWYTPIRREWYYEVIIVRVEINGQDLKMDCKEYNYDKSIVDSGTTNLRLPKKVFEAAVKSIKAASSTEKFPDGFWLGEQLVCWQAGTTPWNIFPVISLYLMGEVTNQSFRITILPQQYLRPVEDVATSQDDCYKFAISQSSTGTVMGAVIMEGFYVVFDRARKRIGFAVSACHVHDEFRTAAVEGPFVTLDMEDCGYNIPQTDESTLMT

B1: 5887 (antibody, V domains shown)
VH: QVQLVQSGAEVKKPGSSVKVSCKASGGTFRGYAISWVRQAPGQGLEWMGNIIPGFGTANYAQKFQGRVTITADESTSTAYMELSSLRSEDTAVYYCARSGGTKYGMLDVWGQGTMVTVSS
VL: EIVMTQSPATLSVSPGERATLSCRASQSVSSNLAWYQQKPGQAPRLLIYGASTRATGIPARFSGSGSGTEFTLTISSLQSEDFAVYYCQQLILWPPRTFGGGTKVEIK
notes: anti-BACE1 IgG
As usually defined, the Kd is the free concentration of one partner at which half of the binding sites on the other are occupied at equilibrium, for simple one-to-one binding. A lower Kd goes with higher affinity. In the case of B1, the Kd with human BACE1 ECD [1] came to 2.2 nM; with murine BACE1 ECD [2] it was 2.3 nM; with human BACE1 ECD [3], 1.1 nM; in the test with murine BACE1 ECD [4] it was 1.4 nM; in [5] it was 3.58 nM; in the test with human BACE1 ECD [10] it was 1.4 nM. Moreover, the equilibrium dissociation constant (Kd) is 1.8 nM with murine BACE1 ECD [11], 0.45 nM in the test with human BACE1 ECD [12], 0.54 nM with murine BACE1 ECD [13] and 7.08 nM in test [14]. Further, the “% inhibition of BACE1 activity, short FRET substrate” value was -102% with human BACE1 ECD [6] and -230% in the test with murine BACE1 ECD [7]. In test [8], the “EC50, FRET short substrate” value turned out to be 0.482 nM. Also, the “EC50, HTRF long substrate” value in test [8] turned out to be 5.5 nM. Besides, the “IC50, Abeta x-40 in mouse cortical neurons” value in test [9] is 1.74 nM. The “IC50, Abeta x-40 in mouse cortical neurons (5887*, second run)” value in [9] turned out to be 2.53 nM. Besides, the “maximal % inhibition of Abeta x-40” value in test [9] amounted to 75%.

B2: 13C3 (antibody, V domains shown)
VH: QVQLQQPGAELVKPGASVKLSCKASGYTFASYWMHWVKQRPGQGLEWIGEINPINGRTNYSEKFKKKATLTVDKSSSTAYMQLSSLTSEDSAVYYCARGTRAYHYWGQGTSVTVSS
VL: DIQMTQSPASLSVSVGETVTITCRASDNIYSNLAWYQQKQGKSPQLLVYAATNLADGVPSRFSGSGSGTQYSLKINSLQSEDFGSYYCQHFWGTPLMFGSGTKLELK
notes: Mouse hybridoma antibody; also called clone 13C3
Take B2: the binding result in [15] and in test [16] was “binds” throughout.

B3: 16G5 (antibody, V domains shown)
VH: B2 VH with K13R, S17A, A30T, I54T, S61N, K63N, K66S, Y105F
VL: B2 VL with M4L, S7T, D27E, N53D, S63R, M97T, S100A, K107I
notes: Mouse hybridoma antibody; also called clone 16G5
For the molecule B3, the binding result in test [15] and in test [16] was “binds” throughout.

B4: hu7A4.v15.Fab (Fab, V domains shown)
VH: EVQLVQSGAEVKKPGASVKVSCKGSGYTFTDYAMHWVRQAPGQGLEWMGGISTYFGRTNYNQKFKGRVTMTVDTSISTAYMELSRLRSDDTAVYYCARGLSGNYVMDYWGQGTTVTVSS
VL: DIVMTQSPDSLAVSLGERATINCRASESVDSYGNSFMHWYQQKPGQPPKLLIYRASNLESGVPDRFSGSGSRTDFTLTISSLQAEDVAVYYCQQSNEAPPTFGQGTKLEIK
notes: Fab
For orientation: koff means the first-order rate constant of dissociation. A high value points to fast dissociation. As usually defined, the kon is the second-order rate constant of association. Lower therefore signals slow association. Regarding B4, the Kd in test [17] was determined as 0.4 nM; in test [18], 4.3 nM. Moreover, the Cy/hu ratio in test [19] came to 11. In addition, the koff in test [20] was 0.000317 s⁻¹; in [21] it was 0.00162 s⁻¹. The results for the kon in test [20] and in test [21] were 910000 M⁻¹ s⁻¹ and 378000 M⁻¹ s⁻¹, respectively.

B5: hu7A4.v15 IgG (antibody, V domains shown)
VH: B4 VH
VL: B4 VL
notes: Human IgG; also called humanized 7A4.v15
As usually defined, the EC50 is the concentration at which the effect is half-maximal. The term EC50 (read off the curve) denotes the concentration at which the effect is half-maximal. The low end stands for higher potency in that assay, the high end for lower potency in that assay. With B5, the Kd was found to be 0.561 nM in test [22], 7.8 nM in [23], 0.58 nM in test [26] and 7.8 nM in [27]. For the same molecule, the EC50 in [24] was found to be 0.0148 µg/mL; in [25], 0.0142 µg/mL. In addition, in test [28], the “EC50 (read off the curve)” value was roughly 0.005 µg/mL.

B6: Q90A (Fab, V domains shown)
VH: B4 VH
VL: B4 VL with Q94A
notes: also called 7A4.v15 Q90A (CDR-L3) Fab
As to B6, the Kd in test [17] was determined as 130 nM; in test [18], 760 nM.

B7: N99A (antibody, V domains shown)
VH: B4 VH with N103A
VL: B4 VL
notes: also called 7A4.v15 N99A (CDR-H3) IgG; copies: 2 + 2
B7: the EC50 was 0.017 µg/mL in test [24] and 0.0822 µg/mL in [25]. The dissociation constant (Kd) in [26] worked out at 11 nM; in test [27] it was 22 nM; in test [29], 19 nM; in [30] it was 77 nM.

B8: Q90A (antibody, V domains shown)
VH: B4 VH
VL: B4 VL with Q94A
notes: also called 7A4.v15 Q90A (CDR-L3) IgG
For B8, the values for the EC50 in test [24] and in test [25] were 0.0093 µg/mL and 0.181 µg/mL, respectively. The Kd was found to be 16 nM in test [26], 570 nM in test [27], 41 nM in [29] and 329 nM in [30].
